Results taken from patent US20190135932A1 (Pfizer, published 2019).
Where “and” joins values, the source holds several entries; their conditions need not be identical. Equal entries are not always repeated.

Assays:
[1] = target: T1, Biotinylated CD134-muIg (Ancell 513-030) (UniProt P43489 29-214, biotinylated); experiment: Biacore (SPR), biotinylated CD134-muIg captured on streptavidin, antibody in solution
T1 construct: extracellular domain; Captured on streptavidin on a CM5 chip; also called OX40R extracellular domain fusion protein (Biacore ligand); not shown: murine Ig part (muIg) of the bought fusion
T1 sequence (looked up): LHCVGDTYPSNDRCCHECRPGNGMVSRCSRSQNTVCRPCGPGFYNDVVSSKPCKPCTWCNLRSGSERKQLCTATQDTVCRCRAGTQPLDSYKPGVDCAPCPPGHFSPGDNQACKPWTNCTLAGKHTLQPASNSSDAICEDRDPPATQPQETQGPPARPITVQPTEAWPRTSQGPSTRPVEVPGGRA
Procedure: Biotinylated CD134-muIg (Ancell 513-030), at a concentration of 10 μg/ml at a flow rate of 5 μl/min was manually injected over Flow cells-2, 3 and 4 to achieve 3 surface densities: Fc-2=150RU, Fc-3=375RU and Fc-4=580RU. The different density surfaces were prepared to monitor the possibility of mass transport limited binding during association phase and rebinding during dissociation, both artifacts that are influenced by surface density that must be avoided.

[2] = target: T2, recombinant human OX40-CD40 fusion construct (amino acids 1-235 of OX40, 216-278 of CD40) expressed on 300-19 … (human, UniProt P43489 29-235; P25942 216-277); experiment: FACS saturation binding on OX40R+ 300-19 cells (N = 2)
T2 construct: range 1-235;range 216-278; also called OX40R+ 300-19 cells; OX40R transfected cells
T2 sequence (looked up): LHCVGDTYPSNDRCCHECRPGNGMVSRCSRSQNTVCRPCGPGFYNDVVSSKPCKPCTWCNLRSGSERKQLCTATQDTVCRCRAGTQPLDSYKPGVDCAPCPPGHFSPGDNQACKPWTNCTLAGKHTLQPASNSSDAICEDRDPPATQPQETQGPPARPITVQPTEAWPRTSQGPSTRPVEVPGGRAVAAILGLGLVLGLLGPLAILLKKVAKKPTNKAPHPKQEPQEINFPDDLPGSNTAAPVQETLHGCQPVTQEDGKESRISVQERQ
Procedure: (§1) OX40R-expressing cell lines (see below) or activated primary peripheral blood mononuclear cells (see below) were used to assess binding on both the human and cynomolgus OX40 receptors. Cells were harvested and washed (5×10⁵/tube) using wash buffer at RT°. The wash buffer consisted of PBS, 2% heat-inactivated fetal bovine serum (Hyclone, Logan, Utah) and 0.02% sodium azide (Sigma, St. Louis, Mo.). Next, 100 μl of various concentrations of antibody was added to the cells (starting at 30 ug/ml and using a 3-fold titration) diluted in wash buffer containing 0.005 mg/ml of cytocholasin B (Sigma, St. Louis, Mo.). The cells were gently rocked at RT° for 3 hours. Next, the cells were washed twice and resuspended in 0.5 ml/tube with cold wash buffer and 10,000 events were collected and analyzed using a Becton Dickinson FACSCalibur and CellQuest software (San Jose, Calif.).

[3] = target: T3, human OX40R on activated primary human T cells (human, UniProt P43489 29-277); experiment: FACS saturation binding on CD3/CD28 stimulated human T cells (N = 4)
T3 construct: whole, on cells; also called CD3/CD28 stimulated T cells; human PBMC's stimulated with anti-CD3 and anti-CD28
T3 sequence (looked up): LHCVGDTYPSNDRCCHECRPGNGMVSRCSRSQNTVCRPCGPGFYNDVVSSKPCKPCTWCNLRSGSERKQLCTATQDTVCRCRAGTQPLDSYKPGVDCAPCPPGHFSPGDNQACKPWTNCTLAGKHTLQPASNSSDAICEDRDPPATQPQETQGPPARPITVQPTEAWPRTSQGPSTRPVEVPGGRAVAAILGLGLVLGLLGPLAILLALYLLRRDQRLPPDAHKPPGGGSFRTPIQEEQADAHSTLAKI
Procedure: as §1
Human whole blood was collected into heparinized syringes (Baxter; Deerfield, Ill.) and then immediately transferred to Sigma Accuspin tubes (Sigma, St. Louis, Mo.) for the isolation of peripheral blood mononuclear cells (PBMC) as described by the manufacturer. The PBMC were washed twice with DPBS and T lymphocytes were isolated using a T cell purification column as described by the manufacturer (R & D Systems, Minneapolis, Minn.). […]

[4] = target: T4, cynomolgus OX40R on activated cynomolgus monkey T cells / PBMCs (cynomolgus monkey); experiment: cell-based or functional assay
[5] = target: T4, cynomolgus OX40R on activated …; experiment: FACS saturation binding on anti-CD3 and anti-CD28 stimulated cynomolgus PBMCs, average over 14 individual monkeys
Procedure: as §1
Cynomolgus whole blood was obtained using heparinized vacutainer tubes (BD; Franklin Lakes, N.J.) and was diluted 1:4 in PBS. Diluted whole blood was mixed and 15 mls was carefully layered over an equal volume of Histopaque 1077 (Sigma, St Louis, Mo.). […] After a PBS wash, the PBMCs were counted and readjusted to 1×10⁶/ml in tissue culture medium (TCM). […]

B1: human monoclonal antibody 18D8 (antibody, human IgG2, kappa, V domains shown)
VH: EVQLVESGGGLVQPGRSLRLSCAASGFTFDDYAMHWVRQAPGKGLEWVSGISWNSGSIGYADSVKGRFTISRDNAKNSLYLQMNSLRAEDTALYYCAKDQSTADYYFYYGMDVWGQGTTVTVSS
VL: EIVVTQSPATLSLSPGERATLSCRASQSVSSYLAWYQQKPGQAPRLLIYDASNRATGIPARFSGSGSGTDFTLTISSLEPEDFAVYYCQQRSNWPTFGQGTKVEIKR
In the case of B1, the Kd [1] is reported as 0.49 µg/mL and 3.38 nM, the koff [1] is reported as 0.00029 s⁻¹ and the EC50 [2] is reported as 0.24 µg/mL and 1.66 nM. The EC50 [3] was 1.06 µg/mL and 7.3 nM.

B2: human monoclonal antibody 11D4 (antibody, V domains shown)
VH: EVQLVESGGGLVQPGGSLRLSCAASGFTFSSYSMNWVRQAPGKGLEWVSYISSSSSTIDYADSVKGRFTISRDNAKNSLYLQMNSLRDEDTAVYYCARESGWYLFDYWGQGTLVTVSS
VL: DIQMTQSPSSLSASVGDRVTITCRASQGISSWLAWYQQKPEKAPKSLIYAASSLQSGVPSRFSGSGSGTDFTLTISSLQPEDFATYYCQQYNSYPPTFGGGTKVEIKR
notes: IgG2 heavy chain, kappa light chain; allotypes G2(n-) and Km3; Alexa Fluor 647 conjugate was used in the species cross-reactivity FACS
B2 was tested, and the “EC50 of anti-CD3 induced IL-2 production by monkey cells (mean of 1:3 dilution curves, N=3)” value [4] was 0.022 µg/mL and the EC50 [5] was 0.354 µg/mL.
